This is an account of results in PMC11472053, “Structural basis of DNA recognition by BEN domain proteins reveals a role for oligomerization in unmethylated DNA selection by BANP” (Nucleic Acids Research, 2024).

For orientation: Kd means the equilibrium constant for the complex coming apart.

In one data set the target is T1, BANP BEN WT (human, UniProt Q8N9N5 205-325).
T1 sequence: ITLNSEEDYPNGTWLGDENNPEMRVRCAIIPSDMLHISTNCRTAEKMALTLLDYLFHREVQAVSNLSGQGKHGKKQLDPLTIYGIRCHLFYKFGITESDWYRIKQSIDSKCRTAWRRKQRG
Description: ITC; ITC: 20 mM Tris pH 7.5, 200 mM NaCl, 2 mM beta-mercaptoethanol, 20 C; EMSA: 20 mM Tris pH 7.0, 200 mM NaCl, 2 mM DTT, 4 C, 1.2% agarose in TAE. The following applies: protein: recombinant; tags: His-SUMO or His-MBP, cleaved; chain copies: 2; blunt, self-complementary. (Isothermal titration calorimetry measures the heat released or taken up as one component is titrated into another.)

The target in the next data set is T2, BANP CC-BEN (ΔDBD) (human, UniProt Q8N9N5 1-360).
T2 sequence: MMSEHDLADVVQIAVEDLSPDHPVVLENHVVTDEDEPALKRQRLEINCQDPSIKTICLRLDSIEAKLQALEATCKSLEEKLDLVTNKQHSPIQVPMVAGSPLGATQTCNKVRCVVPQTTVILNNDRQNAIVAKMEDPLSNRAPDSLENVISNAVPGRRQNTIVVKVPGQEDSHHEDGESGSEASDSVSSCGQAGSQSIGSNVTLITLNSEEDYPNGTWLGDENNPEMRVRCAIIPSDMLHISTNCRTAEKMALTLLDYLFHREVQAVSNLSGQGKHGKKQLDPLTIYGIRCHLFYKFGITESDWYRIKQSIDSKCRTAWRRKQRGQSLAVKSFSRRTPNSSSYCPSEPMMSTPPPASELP
The description is as above. The following applies: protein: recombinant; tags: His-SUMO or His-MBP, cleaved; blunt, self-complementary.

The next data set addresses T3, BANP ΔCC (human, UniProt Q8N9N5 90-519).
T3 sequence: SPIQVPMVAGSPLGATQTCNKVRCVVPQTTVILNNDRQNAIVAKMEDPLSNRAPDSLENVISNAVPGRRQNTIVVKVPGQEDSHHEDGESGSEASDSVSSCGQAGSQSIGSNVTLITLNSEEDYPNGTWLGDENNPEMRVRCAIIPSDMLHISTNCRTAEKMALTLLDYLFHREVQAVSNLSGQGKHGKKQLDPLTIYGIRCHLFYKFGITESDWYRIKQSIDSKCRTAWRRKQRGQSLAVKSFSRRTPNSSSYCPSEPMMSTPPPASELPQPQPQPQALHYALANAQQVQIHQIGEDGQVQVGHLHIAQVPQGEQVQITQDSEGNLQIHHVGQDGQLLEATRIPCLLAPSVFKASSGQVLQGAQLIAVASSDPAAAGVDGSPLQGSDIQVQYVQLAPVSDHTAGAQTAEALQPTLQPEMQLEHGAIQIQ
Described as above. To be noted: protein: recombinant; tags: His-SUMO or His-MBP, cleaved; blunt, self-complementary.

Another data set addresses T4, GST-BANP BEN (human, UniProt Q8N9N5 205-325).
T4 sequence: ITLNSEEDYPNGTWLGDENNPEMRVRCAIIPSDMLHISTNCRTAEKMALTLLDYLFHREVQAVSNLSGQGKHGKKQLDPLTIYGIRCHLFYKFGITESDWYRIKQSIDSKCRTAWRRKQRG
Described as above. To be noted: protein: recombinant; tags: N-terminal GST fusion; chain copies: 2; blunt, self-complementary.

A further data set deals with T5, BANP BEN-DBD (human, UniProt Q8N9N5 205-519).
T5 sequence: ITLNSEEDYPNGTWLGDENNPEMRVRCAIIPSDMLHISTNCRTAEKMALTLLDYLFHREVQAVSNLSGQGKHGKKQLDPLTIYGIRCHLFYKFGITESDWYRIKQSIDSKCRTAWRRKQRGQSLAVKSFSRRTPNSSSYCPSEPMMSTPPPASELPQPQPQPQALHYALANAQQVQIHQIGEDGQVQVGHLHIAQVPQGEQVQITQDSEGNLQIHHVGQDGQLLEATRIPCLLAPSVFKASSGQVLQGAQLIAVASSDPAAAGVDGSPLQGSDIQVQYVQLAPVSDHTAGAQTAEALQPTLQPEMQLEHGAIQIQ
Described as above. To be noted: protein: recombinant; tags: His-SUMO or His-MBP, cleaved; blunt, self-complementary.

In a further data set the target is T6, BANP full-length WT (human, UniProt Q8N9N5 1-519).
T6 sequence: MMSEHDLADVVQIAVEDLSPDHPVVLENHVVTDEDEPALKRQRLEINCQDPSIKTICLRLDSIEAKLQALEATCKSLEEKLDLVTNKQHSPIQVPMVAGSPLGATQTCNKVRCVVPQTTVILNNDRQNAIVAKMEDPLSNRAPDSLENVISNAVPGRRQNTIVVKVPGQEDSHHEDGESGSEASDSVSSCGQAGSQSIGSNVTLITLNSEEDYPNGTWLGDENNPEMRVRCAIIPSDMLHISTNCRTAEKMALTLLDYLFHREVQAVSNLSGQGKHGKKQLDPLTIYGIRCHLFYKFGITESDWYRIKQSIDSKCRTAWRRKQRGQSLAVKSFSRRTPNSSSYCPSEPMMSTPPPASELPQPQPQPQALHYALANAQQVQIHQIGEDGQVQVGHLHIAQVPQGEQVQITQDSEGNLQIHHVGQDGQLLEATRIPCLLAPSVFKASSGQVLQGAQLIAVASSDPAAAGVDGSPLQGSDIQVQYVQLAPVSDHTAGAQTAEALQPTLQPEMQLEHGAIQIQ
The data set is described as above. To be noted: protein: recombinant; tags: His-SUMO or His-MBP, cleaved; chain copies: 4; blunt, self-complementary.

A further data set addresses T7, NACC1 BEN R472A (human, UniProt Q96RE7 341-477, R472A).
T7 sequence: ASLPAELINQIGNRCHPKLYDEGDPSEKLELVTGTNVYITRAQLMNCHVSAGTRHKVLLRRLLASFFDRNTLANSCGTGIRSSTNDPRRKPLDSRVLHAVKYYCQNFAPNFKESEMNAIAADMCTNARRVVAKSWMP
The description is as above. To be noted: protein: recombinant; tags: His-SUMO or His-MBP, cleaved; blunt, self-complementary.

The next data set deals with T8, NACC1 BEN WT (human, UniProt Q96RE7 341-477).
T8 sequence: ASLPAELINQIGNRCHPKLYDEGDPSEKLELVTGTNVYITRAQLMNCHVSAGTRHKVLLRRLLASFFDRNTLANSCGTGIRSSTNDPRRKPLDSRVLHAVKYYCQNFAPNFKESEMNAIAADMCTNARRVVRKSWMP
The data set is described as above. To be noted: protein: recombinant; tags: His-SUMO or His-MBP, cleaved; blunt, self-complementary.

For another data set, the target named is T9, NACC1 BEN R429A (human, UniProt Q96RE7 341-477, R429A).
T9 sequence: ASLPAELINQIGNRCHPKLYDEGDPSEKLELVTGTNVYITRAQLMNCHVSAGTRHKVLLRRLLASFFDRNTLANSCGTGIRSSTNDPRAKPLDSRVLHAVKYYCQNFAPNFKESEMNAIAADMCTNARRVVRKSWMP
The data set is described as above. The following applies: protein: recombinant; tags: His-SUMO or His-MBP, cleaved; blunt, self-complementary.

Another data set concerns the target T10, NACC1 BEN N466A (human, UniProt Q96RE7 341-477, N466A).
T10 sequence: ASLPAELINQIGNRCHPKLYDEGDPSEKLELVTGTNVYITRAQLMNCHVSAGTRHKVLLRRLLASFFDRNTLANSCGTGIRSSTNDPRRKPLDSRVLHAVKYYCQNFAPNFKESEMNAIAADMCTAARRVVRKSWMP
The data set is described as above. The following applies: protein: recombinant; tags: His-SUMO or His-MBP, cleaved; blunt, self-complementary.

The target of the next data set is T11, NACC1 BEN D462A (human, UniProt Q96RE7 341-477, D462A).
T11 sequence: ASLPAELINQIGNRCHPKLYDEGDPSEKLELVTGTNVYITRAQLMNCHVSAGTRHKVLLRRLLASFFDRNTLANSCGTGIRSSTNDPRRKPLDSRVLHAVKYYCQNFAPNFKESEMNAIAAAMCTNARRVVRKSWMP
Described as above. The following applies: protein: recombinant; tags: His-SUMO or His-MBP, cleaved; blunt, self-complementary.

Another data set has as its target T12, NACC1 BEN R421A (human, UniProt Q96RE7 341-477, R421A).
T12 sequence: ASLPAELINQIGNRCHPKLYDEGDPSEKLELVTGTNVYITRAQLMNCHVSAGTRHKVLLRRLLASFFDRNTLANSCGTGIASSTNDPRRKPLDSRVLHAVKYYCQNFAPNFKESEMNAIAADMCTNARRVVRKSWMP
The data set is described as above. The following applies: protein: recombinant; tags: His-SUMO or His-MBP, cleaved; blunt, self-complementary.

In a further data set the target is T13, NACC1 BEN R469A (human, UniProt Q96RE7 341-477, R469A).
T13 sequence: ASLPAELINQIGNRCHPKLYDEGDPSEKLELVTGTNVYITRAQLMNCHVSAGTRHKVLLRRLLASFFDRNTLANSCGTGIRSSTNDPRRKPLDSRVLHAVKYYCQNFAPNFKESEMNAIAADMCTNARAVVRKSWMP
Description: ITC; Kd N.A.; almost completely abolished; ITC: 20 mM Tris pH 7.5, 200 mM NaCl, 2 mM beta-mercaptoethanol, 20 C; EMSA: 20 mM Tris pH 7.0, 200 mM NaCl, 2 mM DTT, 4 C, 1.2% agarose in TAE. The following applies: protein: recombinant; tags: His-SUMO or His-MBP, cleaved; blunt, self-complementary.

B1: 12-mCGCG (dsDNA)
DNA 1: ATCTCGCGAGAT
DNA 2: ATCTCGCGAGAT
modifications: 5-methyl-C at position 5 of each strand (palindrome; called hemi-methylated, one CpG methylated)
Turning to B1, the dissociation constant Kd came to 5.6 ± 0.7 µM with BANP BEN WT; 4.3 ± 0.8 µM with BANP CC-BEN (ΔDBD); 5.6 ± 0.9 µM with BANP ΔCC; 3.5 ± 0.6 µM with GST-BANP BEN; 8.3 ± 0.6 µM in the data set with BANP BEN-DBD; 4.9 ± 1.4 µM in the data set with BANP full-length WT.

B2: 12-CATG (dsDNA)
DNA 1: ATTACATGTAAT
DNA 2: ATTACATGTAAT
Take B2: the Kd in the data set with NACC1 BEN R472A came out at 8.6 ± 1.4 µM; in the data set with NACC1 BEN WT, 1.3 ± 0.2 µM; with NACC1 BEN R429A, 34.7 ± 4.5 µM; in the data set with NACC1 BEN N466A, 2.9 ± 0.4 µM; with NACC1 BEN D462A it was 4.6 ± 0.4 µM; with NACC1 BEN R421A, 4.6 ± 0.6 µM. For the same molecule, the binding result with NACC1 BEN R469A was “no binding”.
